Results from paper PMC4275181, “Evolution of RNA-Protein Interactions: Non-Specific Binding Led to RNA Splicing Activity of Fungal Mitochondrial Tyrosyl-tRNA Synthetases” (PLoS Biology, 2014).

Biological target: the molecule itself
Test: SAXS; molecular weight from forward scattering I(0) against a bovine serum albumin standard; free protein at at least three concentrations in 100 mM KCl, 5 mM MgCl2, 10 mM Tris-HCl (pH 7.5), 5% glycerol

B1: CYT-18* (Neurospora crassa mitochondrial tyrosyl-tRNA synthetase lacking the mitochondrial targeting sequence and most of the C-tail) (enzyme)
chain: MLRREFGPKYTAKINEAEENWQARAEAIKKGKKQNTWDLFEERGYVKDTAGTKEHIAELMRTRRIGAYVGIDPTAPSLHVGHLLPLMPLFWMYLEGYKAFTLIGGSTAKIGDPTGRLKSRDHLSSSDATMNMTKIHYQLKKLWENVDTQMRARGYEADWARKRGIVNNNHWWNKQPMLEVLRRVGHALRIGPMLSRDTVKNKMTQGDGVSFAEFTYPIMQGWDWFELFYQQGVQMQIGGSDQYGNIISGLEVVKAARESEPDPQERKYVTPKTALDECVGFTVPLLTDSSGAKFGKSAGNAIWLDPYQTSVFDFYGYFVRRSDQEVENLLKLFTFMPISEITKTMEEHIKDPSKRVAQHTLAREVVTLVHGKQEASAAEDQHRMMYTGQMTIPQVSRAKDAATGGDQYKTISDQPVTLNNAPRIDMILPESLIMGKSIGRILYAAGLASSTTEGHKLAAAQGCYVGGAHRAGGENVTMNPDLISFMPVKLWFPGETQRYLINGNLLILRKGKHNVRVIQMVSDVEYAASGQTYPGQSFTGAVRKLNEIMKNL
notes: extra N-terminal methionine of the expression construct; stop codons introduced after Leu583; Derived from pEX560 (wild-type CYT-18, amino acids 33-669); also called CYT18/ΔC-tail; N. crassa mtTyrRS
  stoichiometry N: 2
